# According to the supplement of paper PMC12764529:
# ± gives the half width of the 95% confidence interval.
# What was measured:
# [1] = folding stability dG unfold from chymotrypsin proteolysis; higher = more stable
# Summary of the method: (§1)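 Mini-proteins designed to be under 80 residues and free of cysteine were carried in a PA-tagged cDNA display construct and digested with trypsin and with chymotrypsin. Each protease was applied at 11 threefold-diluted concentrations, alongside a no-protease condition, before sequencing. K50 came from Bayesian fitting of the sequencing counts, and unfolding free energy was obtained by comparing it with a sequence-predicted unfolded-state K50 and a shared folded-state K50, for each protease separately or for both together. Designs were retained only if their AlphaFold2 dimer inter-PAE exceeded 15.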
# [2] = folding stability dG unfold (combined trypsin and chymotrypsin); higher = more stable
# Summary of the method: as §1
# [3] = folding stability dG unfold from trypsin proteolysis; higher = more stable
# Summary of the method: as §1
Sequence,folding stability dG unfold [1],folding stability dG unfold [2],folding stability dG unfold [3]
SAGGSAGVVKGRIEITFVVPPDAPGVEELARETVKRIGFDAENVEILKVERLPDGSYRVTLLLDAPSAGGSA [r15_654_TrMRF],4.47 ± 0.052 kcal/mol,4.21 ± 0.071 kcal/mol,3.17 ± 0.059 kcal/mol
GMSVTSYETDPNTGGPSISISSAPDPKTGLLSAPVTVYDPKTGQSKTINLTATSSEELAAKIAELLPASLLS [r1_156_JUSTAS],0.166 ± 0.17 kcal/mol,0.97 ± 0.098 kcal/mol,1.39 ± 0.024 kcal/mol
SMTVSATAVPFGDRLVVTVTVTVDPTLFPDRPPGPAVWERVARELARELGIDSVTLAPLPDDTFVALFDDSA [r9_883_TrMRF],2.46 ± 0.04 kcal/mol,2.48 ± 0.084 kcal/mol,2.41 ± 0.069 kcal/mol
SAGGSAGGSAGGMTIPLEFEFPDGRRLRITYHIEPSEDGLKITAEVEIEPIPEPPLPSDSAGGSAGGSAGGS [r10_1200_TrMRF],3.64 ± 0.13 kcal/mol,3.31 ± 0.26 kcal/mol,1.93 ± 0.14 kcal/mol
SATPTLTLEFEVEVEDPNAPGVPAPAKFTAEVAVTPPPVLYVGGEPWAGALLEQGLVTVGPDGLIAIPASAG [r14_582_TrMRF],1.11 ± 0.13 kcal/mol,0.775 ± 0.13 kcal/mol,0.442 ± 0.072 kcal/mol
SAGGSAGGSDYLMIWIPPDALKGMPPGQEIEFEIKFNGGEYKVKIKVMPHENGHYMIMITVEPSAGGSAGGS [r12_433_TrROS],4.59 ± 0.3 kcal/mol,4.06 ± 0.25 kcal/mol,3.2 ± 0.35 kcal/mol
SAGGKTYTIVLPIPPNVPLEEYIKKIEKLLKKLKKNVPISFNKQKKLPNGYYLINFTLTDNKVTGFGSAGGS [r8_7_TrMRF],1.91 ± 0.12 kcal/mol,1.72 ± 0.18 kcal/mol,1.06 ± 0.059 kcal/mol
SAGGKKKKKKKIEKKVKTVTIKIKAKTKEEAKKALEELLKKKGLEVEIVKIEYDPETKEITVTVKVKPSAGG [r13_567_TrROS_Hall],2.32 ± 0.12 kcal/mol,2.14 ± 0.085 kcal/mol,1.92 ± 0.044 kcal/mol
SAGKEEAEKNKIAVLHLELYHPDGTKVSITIAFHPDKPEAVIEELTKLGYPLKDLIKNHPDLKILKIEPSAG [r5_430_TrMRF],1.57 ± 0.044 kcal/mol,1.71 ± 0.11 kcal/mol,1.71 ± 0.092 kcal/mol
SAKASELLKKLPFEAEIEEGEEFVKIKLKNPFLKNPNVTFEFEIPTKKGKPIKVKVTLTKNGAEKIEPSSAG [r14_401_TrMRF],2.18 ± 0.078 kcal/mol,2.25 ± 0.34 kcal/mol,2.57 ± 0.14 kcal/mol
SAGGSAGGKTLELEVEALDPITGEPYKVKIIYDPETGTATILVTHPNGKKSLFTVPAGEALKLLSAGGSAGG [r6_219_TrMRF],3.456 ± 0.033 kcal/mol,3.28 ± 0.13 kcal/mol,2.63 ± 0.19 kcal/mol
SAGGSASLTVVYPGGETRTFDVSAVSPEFLRAHPDVTVTLPGGEERRLAGDTELSPAGPHTITVPASAGGSA [r15_733_JUSTAS],1.8 ± 0.083 kcal/mol,2.06 ± 0.088 kcal/mol,2.39 ± 0.11 kcal/mol
SAGGSAGGSAGGSTITISPEQPVEGLTIELDGKTIKVVSYTPEPKEGEPLLKVTVERLDSAGGSAGGSAGGS [r10_1098_JUSTAS],-0.489 ± 0.33 kcal/mol,-0.771 ± 0.81 kcal/mol,-1.28 ± 0.86 kcal/mol
SAGGSAGGSAMTLKEKAEAIEKEKGVKITVTVTYPDGTVRTLTPEELSSIPPGPYTLSFTTPSAGGSAGGSA [r18_394_JUSTAS],1.44 ± 0.16 kcal/mol,1.67 ± 0.099 kcal/mol,1.73 ± 0.023 kcal/mol
SAGGKKKPKVKTITITLPKKDIKIGDVITAEEIAKLLGLPKNAKIKVVEVKYDKETGEVTIKIEIYESAGGS [r16_165_TrROS_Hall],3.29 ± 0.1 kcal/mol,2.96 ± 0.11 kcal/mol,1.98 ± 0.045 kcal/mol
SAGGSASPVTVTYTDPNSTVLESVYTPSSGIVYVKYKVGDKWYLVTVKLDPSGSSVSSVTKEPLPPSAGGSA [r15_297_JUSTAS],2.13 ± 0.041 kcal/mol,1.95 ± 0.043 kcal/mol,1.55 ± 0.04 kcal/mol
SIKIQVHMWPDGFYVIKVRFPGNGKPIHIPFPPNETAEEQVDKIANNLWKQHGFEPVEVDIYPMPKPLPPSA [r9_1205_TrROS],2.25 ± 0.034 kcal/mol,2.15 ± 0.12 kcal/mol,1.81 ± 0.088 kcal/mol
SAGGSAGGSAGGEIKPGETITNLKVKIRNKKTGKTITVTLKPGETAEDLAKKLGVEIEPSAGGSAGGSAGGS [r10_202_TrROS_Hall],0.881 ± 0.097 kcal/mol,0.87 ± 0.1 kcal/mol,0.622 ± 0.12 kcal/mol
SAGGPGMKMEPIAQIEFPGGRKITIHRMEMPNGNKMVNVNIMNPNGKTKTVMVPMGDIDEAIDALKLSAGGS [r16_588_TrROS],1.04 ± 0.07 kcal/mol,1.29 ± 0.12 kcal/mol,1.65 ± 0.036 kcal/mol
SPPHWMIMPTVERKDPNGEKKTVTYMIPVPPGNWDKMLDNIADEAGDPDLKIKEIEPSKNGFIMIKLKVKSA [r9_1101_TrROS],0.604 ± 0.48 kcal/mol,0.0989 ± 0.54 kcal/mol,0.497 ± 0.17 kcal/mol
SAGGSAEEDEVVTIRAVLENGEVRELEVKLPEGTRIYIPGTGEVREVPFGDEVPVPANSDLLVEPVSAGGSA [r15_152_TrMRF],-0.642 ± 0.25 kcal/mol,-0.819 ± 0.62 kcal/mol,-0.106 ± 0.13 kcal/mol

Sequence,folding stability dG unfold [1],folding stability dG unfold [2],folding stability dG unfold [3]
SAGGSMTLTIEVDGKTVEITEVREKEDGEKVVRIRVTTPDGEEKEIEMTLDELAEILGLSKEELEPSAGGSA [r2_262_TrROS_Hall],2.67 ± 0.085 kcal/mol,3.27 ± 0.18 kcal/mol,3.75 ± 0.19 kcal/mol
SAGGSAGGSAGVEEIAKILQELGFEVEVEPVPDGMRTIEVQNKNGKKITIRITADGKIEISAGGSAGGSAGG [r17_503_TrROS],2.2 ± 0.14 kcal/mol,2.09 ± 0.11 kcal/mol,1.9 ± 0.03 kcal/mol
SAGGVDPSKLTPLSTREVPVDDRRLLVTTYLTPDGKPLYTVTVLDAEGRPLGSELVPPEKVSADGRLESAGG [r13_447_JUSTAS],0.506 ± 0.11 kcal/mol,0.334 ± 0.066 kcal/mol,-0.0975 ± 0.1 kcal/mol
SAGGSAGGSAGGAPNAPKPVLVFAEVTVTSVEYDPETGELRIEVELPDGGEKLTFRLPLSAGGSAGGSAGGS [r10_427_TrMRF],2.44 ± 0.031 kcal/mol,2.23 ± 0.054 kcal/mol,1.93 ± 0.031 kcal/mol
SAGSMELLEKKEGKLPDGRVYTTETLRNPANGLYEVKTFVFEPGGNPLAEERITYEGDKLVSSETIYLGSAG [r14_828_JUSTAS],0.842 ± 0.075 kcal/mol,0.594 ± 0.077 kcal/mol,0.199 ± 0.04 kcal/mol
SAGGNDDDQKPKMVRVKIKYDNPDGEKYKIDEIWVMPPPFIMIRMPGNGQEIFIPPDQIKEIEIEPVSAGGS [r8_410_TrROS],1.09 ± 0.081 kcal/mol,0.826 ± 0.3 kcal/mol,-0.149 ± 0.28 kcal/mol
SAGGSAGGSAGKKKLVVVVDPEEPGRVRIYRDGKVIEMSLEELKKLGIDEVVSVEELLAKSAGGSAGGSAGG [r17_88_TrROS_Hall],2.34 ± 0.026 kcal/mol,1.96 ± 0.09 kcal/mol,1.03 ± 0.04 kcal/mol
SAGTLEEALEDPSNETVEIEIEIPTGEYPLSDPEKVEELAEEKKKEIEKKLKEKGKNVKIIFKVSLKPLSAG [r5_408_JUSTAS],0.213 ± 0.15 kcal/mol,0.447 ± 0.16 kcal/mol,0.366 ± 0.07 kcal/mol
SAMKIEPVPDPEHGRTYYTIKFKGAEVQIWENPGQYYISIRPPGNNKQIVIPAPPNDIDDILKELGIKPSAG [r14_4_TrROS],1.71 ± 0.16 kcal/mol,1.4 ± 0.17 kcal/mol,1.06 ± 0.032 kcal/mol
SAGGSAGGMTVEIDLDLEVPDGGVRLERLVVDPERPLVLAFLTLEDGTKRVIPFESLEELLERLSAGGSAGG [r6_547_TrMRF],1.21 ± 0.032 kcal/mol,1.23 ± 0.11 kcal/mol,1.26 ± 0.064 kcal/mol
SAGVPLSSVPESEVAEEVEFPKHGLKLLRDTATGKWYLQEGDTATVIPPEEAAKLLAEIKAPKPSPELLSAG [r14_516_JUSTAS],1.01 ± 0.083 kcal/mol,1.2 ± 0.082 kcal/mol,1.33 ± 0.073 kcal/mol
SAGGSAGGSMKWTSIASYPHPDMVVHVIKFEGGGELTFPAPFEDLVEIAEKFDLDLEFTGDHPSAGGSAGGS [r12_676_TrMRF],0.28 ± 0.11 kcal/mol,0.447 ± 0.11 kcal/mol,0.45 ± 0.072 kcal/mol
SAGGSAGGSAGSETYYIKIGDKLYTVTVEPDSITVKYPETSEEKTFSSSLPGISLEEILSSAGGSAGGSAGG [r11_648_JUSTAS],1.68 ± 0.054 kcal/mol,1.71 ± 0.065 kcal/mol,1.63 ± 0.041 kcal/mol
SAGGSAGGSAGGPIITPKIRDALKAAGKDFSEEEIRGIAEGIAAIAIEKGYPDVVITADASAGGSAGGSAGG [r7_512_TrMRF],0.938 ± 0.018 kcal/mol,0.669 ± 0.045 kcal/mol,-0.259 ± 0.06 kcal/mol
SAGGSMTAPVKVLIKVPPNIPLSDIVKKLSAIPGIGAKPISYDPETGYALVDIGATDPEALKEAIGSAGGSA [r2_305_TrMRF],2 ± 0.029 kcal/mol,1.9 ± 0.057 kcal/mol,1.67 ± 0.057 kcal/mol
SAGGSAGGSAMYVKVTFTYPDGSTTTVTTQLDEEEAKKLVEELAPLPVEAKLEIIPEDVPESAGGSAGGSAG [r3_35_JUSTAS],0.249 ± 0.23 kcal/mol,0.655 ± 0.17 kcal/mol,0.344 ± 0.073 kcal/mol
SAGGSAGGMKVTSRETTEITVDTSTGKVTITTTTTLSNGTVVPVGTTTVAISELPEELLSEIESSAGGSAGG [r6_469_JUSTAS],0.886 ± 0.019 kcal/mol,0.707 ± 0.042 kcal/mol,0.308 ± 0.026 kcal/mol
SPRIEVRKLPDGTELVRIEIPTPEGNPVVVEATVTYDPETGTVTQEVTLTDPNVPPEVKALLESFTLTVPSA [r9_715_JUSTAS],1.54 ± 0.028 kcal/mol,1.4 ± 0.042 kcal/mol,1.12 ± 0.019 kcal/mol
SAEKLKKILENIEKVEFDEETGEVYITVKSVEEAEKALKELFPDVEIEKDEDGNYRFRIRVEKLPEELLSAG [r14_115_TrROS_Hall],4.68 ± 0.082 kcal/mol,4.4 ± 0.084 kcal/mol,3.66 ± 0.12 kcal/mol
SAGGSAGGSAMRPVSFTLVSTETAPNGVKVTKYVLTEPTGPAREYTSTNLLVEGSSLTDLSSAGGSAGGSAG [r3_261_JUSTAS],0.239 ± 0.1 kcal/mol,0.202 ± 0.087 kcal/mol,0.0443 ± 0.084 kcal/mol
SAGGGMSGKAISEEEIEALIKEEAEKRGLKIEIKEITRPPGTVTVTVKITEGDSVTEKTIDFPILPEPSAGG [r13_652_JUSTAS],1.64 ± 0.054 kcal/mol,1.59 ± 0.06 kcal/mol,1.54 ± 0.039 kcal/mol
